In patent US20200339702A1 (ULTRAHUMAN THIRTEEN, published 2020):
Residue numbers refer to the chain shown, from its start.

T1: rhesus monkey ERBB3 His tag, monomeric (rhesus monkey (Macaca mulatta), UniProt P21860 20-643 (human entry), limits assumed)
T1 chain: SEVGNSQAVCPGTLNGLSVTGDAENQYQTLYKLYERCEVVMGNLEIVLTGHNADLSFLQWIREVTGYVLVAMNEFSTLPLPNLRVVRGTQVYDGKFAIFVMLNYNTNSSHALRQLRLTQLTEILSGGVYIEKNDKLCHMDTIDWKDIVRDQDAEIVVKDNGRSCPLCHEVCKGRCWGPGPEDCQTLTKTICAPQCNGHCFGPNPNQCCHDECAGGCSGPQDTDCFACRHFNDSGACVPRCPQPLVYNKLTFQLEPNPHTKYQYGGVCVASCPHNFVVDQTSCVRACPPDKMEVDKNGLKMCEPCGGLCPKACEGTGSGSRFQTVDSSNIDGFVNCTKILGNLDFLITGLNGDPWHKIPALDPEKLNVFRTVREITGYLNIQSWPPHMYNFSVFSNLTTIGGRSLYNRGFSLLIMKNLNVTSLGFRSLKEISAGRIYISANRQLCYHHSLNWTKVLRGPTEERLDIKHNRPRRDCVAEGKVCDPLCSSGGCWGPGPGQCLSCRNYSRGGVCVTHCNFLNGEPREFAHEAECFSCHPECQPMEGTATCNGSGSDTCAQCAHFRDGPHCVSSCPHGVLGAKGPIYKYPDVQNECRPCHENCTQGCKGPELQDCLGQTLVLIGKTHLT

B1: 09D12 IgG1null (antibody, V domains shown)
VH: QVQLVESGGGLVKPGGSLRLSCAASGFTFSDYGMSWIRQAPGKGLEWVSTISDGGSYTYYADSVKGRFTISRDNAKNSLYLQMNSLRAEDTAVYYCAREYGDYDGFDYWGQGTLVTVSS
VL: DIQMTQSPSSLSASVGDRVTITCRASQSISSYLNWYQQKPGKAPKLLIYAASSLDSGVPSRFSGSGSGTDFTLTISSLQPEDFATYYCLQYDSTPLTFGGGTKVEIK
notes: Human IgG1null and human Ckappa
B2: TTP IgG1null (antibody, V domains shown)
VH: B1 VH with G54S, Y57T, T58I
VL: B1 VL with D55Q
notes: Designer clone; Human IgG1null and human Ckappa; also called Total Theoretically Possible clone

How the values were obtained:
[1] = molecular target: T1, rhesus monkey ERBB3 His tag, monomeric; assay: SPR (Biacore), captured IgG, monomeric ERBB3-His analyte
[2] = molecular target: T2, human ERBB3 His tagged, monomeric (human, UniProt P21860 20-643, biotinylated in the Alphascreen assays (sites not given)); assay: Alphascreen competition in solution, competitor h24C05 IgG1null, biotinylated human ERBB3-His
T2 construct: Used unbiotinylated as Biacore analyte and biotinylated in Alphascreen; treated as one molecule; also called human ERBB3-His (Acrobiosystems); biotinylated monomeric human ERBB3
Description: The AlphaScreen assay (Perkin Elmer) was performed in a 25 μl final volume in 384-well white microtiter plates (Greiner). The reaction buffer contained 1×PBS pH 7.3 (Oxoid, Cat. nr. BR0014G) and 0.05% (v/v) Tween® 20 (Sigma, Cat. nr. P9416). Purified IgG samples were titrated in three fold serial dilutions starting at 100 nM final concentration and incubated with biotinylated human ERBB3-His (Acrobiosystems) at 1 nM final concentration for 20 minutes at room temperature. The parental IgG and the anti-human IgG1 Acceptor beads at were added and the mix was incubated for 1 hour at room temperature. Followed by addition of the Streptavidin Donor beads and incubation for 30 minutes at room temperature. The emission of light was measured in the EnVision multilabel plate reader (Perkin Elmer) and analysed using the EnVision manager software. Values were reported as Counts Per Second (CPS) and corrected for crosstalk.

Binder | Kd [1] [nM] | koff [1] [s⁻¹] | kon [1] [M⁻¹ s⁻¹] | IC50 (read off the curve) [2] [nM]
B1 | 0.69 | 0.0074 | 1.1e+07 | 
B2 |  |  |  | ~5
